The values below come from publication PMC4017264 (Molecular Cell, 2014).

A word on the Ki: it is a measure of affinity in units of concentration, obtained from inhibition or displacement. High values mean a looser hold on the target, low ones a stronger hold on the target. As usually defined, the Kd is the constant that tells how readily two partners part at equilibrium. Lower therefore signals a tighter complex.

Values joined by “and” are separate entries in the source; they are usually repeats but may differ in a detail not shown here. Identical values can stand only once. No end group written: not given here. *: point of attachment. FITC = O=C1OC2(c3ccc(O)cc3Oc3cc(O)ccc32)c2ccc(NC(=S)*)cc21; Ahx = NCCCCCC(=O)O

The target of experiment [1] is T1, HOIP extended PUB domain (aa 1–184) (UniProt Q96EP0 1-184).
T1 construct: 15N- or 13C,15N-labelled for NMR; Construct details are in the Supplemental Experimental Procedures; also called HOIP PUB domain
T1 sequence (looked up): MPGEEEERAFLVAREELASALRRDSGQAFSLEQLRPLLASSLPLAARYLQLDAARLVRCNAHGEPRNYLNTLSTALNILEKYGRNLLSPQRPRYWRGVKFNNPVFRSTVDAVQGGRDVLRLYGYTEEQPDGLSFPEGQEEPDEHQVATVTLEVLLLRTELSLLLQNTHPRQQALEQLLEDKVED
The experiment can be described thus: fluorescence polarisation; competition assay: p97 PIM peptide competes with the OTULIN PIM for the HOIP PIM pocket. To be noted: both partners purified. A general note: Polarisation of emitted light reports the rotation of a fluorescent probe.

In experiment [2] the target is HOIP PUB domain (aa 1–184) Y82F (UniProt Q96EP0 1-184, Y82F). The experiment can be described thus: FP.
Experiment [3] has as its target HOIP PUB domain (aa 1–184) N85A (UniProt Q96EP0 1-184, N85A). The experiment is described as follows: FP.
Another experiment concerns the target T2, HOIP PUB domain K99R (UniProt Q96EP0 1-184, K99R).
T2 construct: HOIP PUB domain with K99R
T2 sequence (looked up): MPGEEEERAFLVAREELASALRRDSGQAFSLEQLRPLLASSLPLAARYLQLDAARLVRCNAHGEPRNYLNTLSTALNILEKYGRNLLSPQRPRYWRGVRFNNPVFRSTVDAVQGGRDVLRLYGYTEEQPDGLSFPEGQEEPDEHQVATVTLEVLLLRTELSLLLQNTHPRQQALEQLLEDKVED
The experiment can be described thus: fluorescence polarisation; serially diluted PUB domains and HOIP variants mixed with an equal volume of 100 nM FITC-Ahx-labeled peptide; one-site binding model; triplicate. Conditions: both partners purified.

For the next experiment, the target named is T3, HOIP PUB domain N101R (UniProt Q96EP0 1-184, N101R).
T3 construct: HOIP PUB domain with N101R
T3 sequence (looked up): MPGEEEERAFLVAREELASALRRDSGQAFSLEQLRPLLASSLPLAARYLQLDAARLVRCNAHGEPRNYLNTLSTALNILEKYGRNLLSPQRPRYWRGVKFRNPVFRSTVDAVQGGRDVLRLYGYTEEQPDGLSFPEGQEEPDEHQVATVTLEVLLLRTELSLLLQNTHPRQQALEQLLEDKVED
The experiment is described as above. Conditions: both partners purified.

For another experiment, the target named is T4, PNGase PUB domain R55A (UniProt Q96IV0 11-109, Arg55 was mutated to Ala).
T4 construct: PNGase PUB domain with Arg55 mutated to Ala; also called PNGase mutant; Arg55 mutated to Ala
T4 sequence (looked up): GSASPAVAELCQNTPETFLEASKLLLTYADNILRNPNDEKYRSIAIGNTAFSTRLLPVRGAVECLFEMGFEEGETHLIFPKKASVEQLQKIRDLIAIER
Described as above. Conditions: both partners purified.

Experiment [4] concerns the target T5, HOIP PUB domain (aa 1–184) V104A (UniProt Q96EP0 1-184, V104A).
T5 sequence (looked up): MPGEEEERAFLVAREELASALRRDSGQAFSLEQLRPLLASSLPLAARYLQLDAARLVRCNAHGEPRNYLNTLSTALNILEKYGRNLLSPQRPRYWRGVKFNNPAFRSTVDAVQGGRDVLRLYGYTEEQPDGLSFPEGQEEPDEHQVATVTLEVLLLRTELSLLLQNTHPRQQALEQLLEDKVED
The experiment is described as above. Conditions: both partners purified.

In experiment [5] the target is T6, HOIP PUB domain (aa 1–184) N85A (UniProt Q96EP0 1-184, N85A).
T6 sequence (looked up): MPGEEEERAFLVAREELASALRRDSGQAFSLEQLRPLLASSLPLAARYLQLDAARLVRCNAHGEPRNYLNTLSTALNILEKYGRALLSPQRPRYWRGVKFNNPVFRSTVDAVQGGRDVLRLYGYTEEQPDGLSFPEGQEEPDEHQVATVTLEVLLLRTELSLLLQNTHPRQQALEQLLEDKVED
Described as above. To be noted: both partners purified.

In experiment [6] the target is T7, HOIP PUB domain (aa 1–184) Y82F (UniProt Q96EP0 1-184, Y82F).
T7 sequence (looked up): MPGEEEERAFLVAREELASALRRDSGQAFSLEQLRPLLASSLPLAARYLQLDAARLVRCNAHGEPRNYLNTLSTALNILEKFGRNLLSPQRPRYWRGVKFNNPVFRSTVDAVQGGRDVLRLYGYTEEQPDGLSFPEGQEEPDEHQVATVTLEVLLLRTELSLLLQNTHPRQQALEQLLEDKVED
The experiment is described as above. Conditions: both partners purified.

For experiment [7], the target named is T8, UBXD1 PUB domain (aa 150–264) (UniProt Q9BZV1 150-264).
T8 construct: UBXD1, PUB domain, residues 150-264; also called minimal UBXD1 PUB domain
T8 sequence (looked up): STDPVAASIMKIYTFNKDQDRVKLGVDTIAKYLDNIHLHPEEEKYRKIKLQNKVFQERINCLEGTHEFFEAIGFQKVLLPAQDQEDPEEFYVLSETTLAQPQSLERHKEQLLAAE
The description is as above. Conditions: both partners purified.

The target in experiment [8] is T1, HOIP extended PUB domain (aa 1–184). Described as above. To be noted: both partners purified.
The target of experiment [9] is T9, PNGase PUB domain (aa 11–109) (UniProt Q96IV0 11-109).
T9 construct: PNGase (peptide:N-glycanase), PUB domain, residues 11-109
T9 sequence (looked up): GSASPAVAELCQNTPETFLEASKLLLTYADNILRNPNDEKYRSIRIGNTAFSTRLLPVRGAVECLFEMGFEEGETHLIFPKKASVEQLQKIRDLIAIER
The experiment is described as above. To be noted: both partners purified.

B1: unlabeled p97 PIM peptide (peptide, UniProt P55072 797-806, looked up)
peptide: TEDNDDDLYG
notes: p97 (VCP) PIM peptide; also called p97 peptide
In turn, B1 came in with an inhibition constant (Ki) in experiment [1] of 37 µM. This lies in the double-digit micromolar range.

B2: FITC-Ahx-labeled OTULIN PIM peptide (aa 49–67) (peptide, UniProt Q96BN8 49-67, looked up)
peptide: {FITC-Ahx}-AEHEEDMYRAADEIEKEKE
notes: OTULIN, residues 49-67, holds the EEDMYR motif (residues 52-57); also called OTULIN peptide; wild-type OTULIN PIM peptide
For B2, the Kd in [2] is 9.38 µM; in experiment [3], 1.04 µM; with HOIP PUB domain N101R, 0.1 µM; with PNGase PUB domain R55A, 43 µM. Also, the binding result (with HOIP PUB domain K99R; in [4]; in experiment [5]; in experiment [6]) was “binds” in each case.

B3: FITC-Ahx-labeled p97 PIM peptide (aa 797–806) (peptide, UniProt P55072 797-806, looked up)
peptide: {FITC-Ahx}-TEDNDDDLYG
notes: p97 (VCP), C-terminal residues 797-806; also called p97 peptide; fluorescent p97 PIM peptide
As for B3, in the experiment with HOIP PUB domain K99R, the binding result is “binds”. For the same molecule, the dissociation constant Kd is 0.9 µM in the experiment with HOIP PUB domain N101R; 12 µM in experiment [7]; 7.6 µM and 6 µM in experiment [8]; 3 µM in [9].
